For the data set, the target named is PrfA WT (Listeria monocytogenes, UniProt P22262 1-237). In words: BLI; free L-Leu, PrfA:ligand 1:100, no inhibition. The settings on record: protein: recombinant; tags: His-tag (pET28a); chain copies: 2; blunt. (BLI is a label-free optical method that tracks binding on a fibre tip over time.)
Sequence of PrfA WT (P22262 whole entry): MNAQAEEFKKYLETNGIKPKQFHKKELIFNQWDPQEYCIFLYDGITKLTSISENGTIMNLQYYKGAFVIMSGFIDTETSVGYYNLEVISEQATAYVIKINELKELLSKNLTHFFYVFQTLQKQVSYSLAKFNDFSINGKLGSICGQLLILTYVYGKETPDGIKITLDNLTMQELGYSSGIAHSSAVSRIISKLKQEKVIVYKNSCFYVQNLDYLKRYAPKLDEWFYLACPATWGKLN

B1: PplcA/Phly PrfA box (Phlybox) (dsDNA)
DNA 1: TGTCCCTTTATCGTCGTTAACAAATGTTAATGCCTCGACA
DNA 2: TGTCGAGGCATTAACATTTGTTAACGACGATAAAGGGACA
Turning to B1, the binding result was “binds”.

The record behind these values is publication PMC6389498.
